Data from patent US20160263155A1, “T CELL RECEPTORS DIRECTED AGAINST THE PREFERENTIALLY EXPRESSED ANTIGEN OF MELANOMA AND USES THEREOF” (LEIDEN UNIVERSITY MEDICAL CENTER, priority 2015, published 2016).
Where a chain is given by its changes, count along the chain named. In names and notes the source's numbering stands.

B1: T317C (protein)
chain: GFGDVGALESLRGNADLAYILSMEPCGHCLIINNVNFCRESGLRTRTGSNIDCEKLRRRFSSLHFMVEVKGDLTAKKMVLALLELAQQDHGALDCCVVVILSHGCQASHLQFPGAVYGTDGCPVSVEKIVNIFNGTSCPSLGGKPKLFFIQACGGEQKDHGFEVASTSPEDESPGSNPEPDACPFQEGLRTFDQLDAISSLPTPSDIFVSYSTFPGFVSWRDPKSGSWYVETLDDIFEQWAHSEDLQSLLLRVANAVSVKGIYKQMPGCFNFLRKKLFFKTS
B2: P318A (protein)
chain: B1 chain with C183T, P184A
B3: F319A (protein)
chain: B1 chain with C183T, F185A
B4: C403S (protein)
chain: B1 chain with C183T, C269S
B5: C403T (protein)
chain: B1 chain with C183T, C269T
B6: N405A (protein)
chain: B1 chain with C183T, N271A
B7: N405T (protein)
chain: B1 chain with C183T, N271T
B8: L329K (protein)
chain: B1 chain with C183T, L195K
B9: A331K (protein)
chain: B1 chain with C183T, A197K
B10: D330A-N405T (protein)
chain: B1 chain with C183T, D196A, N271T
B11: T317E (protein)
chain: B1 chain with C183E
B12: F326K (protein)
chain: B1 chain with C183T, F192K
B13: D327G (protein)
chain: B1 chain with C183T, D193G
B14: D327K (protein)
chain: B1 chain with C183T, D193K
B15: D327R (protein)
chain: B1 chain with C183T, D193R
B16: Q328K (protein)
chain: B1 chain with C183T, Q194K
B17: Q328R (protein)
chain: B1 chain with C183T, Q194R
B18: L329G (protein)
chain: B1 chain with C183T, L195G
B19: ^402GCFNF^406AAAAA: Caspase-9 homodimerization domain mutant (SEQ ID NOS 95 and 99) (protein, UniProt P55211 1-416, looked up, variant G402A C403A F404A N405A F406A)
chain: MDEADRRLLRRCRLRLVEELQVDQLWDALLSRELFRPHMIEDIQRAGSGSRRDQARQLIIDLETRGSQALPLFISCLEDTGQDMLASFLRTNRQAAKLSKPTLENLTPVVLRPEIRKPEVLRPETPRPVDIGSGGFGDVGALESLRGNADLAYILSMEPCGHCLIINNVNFCRESGLRTRTGSNIDCEKLRRRFSSLHFMVEVKGDLTAKKMVLALLELAQQDHGALDCCVVVILSHGCQASHLQFPGAVYGTDGCPVSVEKIVNIFNGTSCPSLGGKPKLFFIQACGGEQKDHGFEVASTSPEDESPGSNPEPDATPFQEGLRTFDQLDAISSLPTPSDIFVSYSTFPGFVSWRDPKSGSWYVETLDDIFEQWAHSEDLQSLLLRVANAVSVKGIYKQMPAAAAALRKKLFFKTS
B20: F404A (protein)
chain: B1 chain with C183T, F270A
B21: F404S (protein)
chain: B1 chain with C183T, F270S
B22: F406L (protein)
chain: B1 chain with C183T, F272L
B23: D315A-D330A (protein)
chain: B1 chain with D181A, C183T, D196A
B24: D330A-Y153A (protein)
chain: B1 chain with Y19A, C183T, D196A
B25: D330A-Y153F (protein)
chain: B1 chain with Y19F, C183T, D196A
B26: D330A-T317E (protein)
chain: B1 chain with C183E, D196A
B27: ^402GCFNF^406YCSTL: Caspase-9 homodimerization domain mutant (SEQ ID NOS 95 and 100) (Casp-2) (protein, UniProt P55211 1-416, looked up, variant G402Y F404S N405T F406L)
chain: B19 chain with A402Y, A403C, A404S, A405T, A406L
B28: ^402GCFNF^406CIVSM: Caspase-9 homodimerization domain mutant (SEQ ID NOS 95 and 101) (Casp-3) (protein, UniProt P55211 1-416, looked up, variant G402C C403I F404V N405S F406M)
chain: B19 chain with A402C, A403I, A404V, A405S, A406M
B29: ^402GCFNF^406QPTFT: Caspase-9 homodimerization domain mutant (SEQ ID NOS 95 and 102) (Casp-8) (protein, UniProt P55211 1-416, looked up, variant G402Q C403P F404T N405F F406T)
chain: B19 chain with A402Q, A403P, A404T, A405F, A406T
B30: G402A (protein)
chain: B1 chain with C183T, G268A
B31: G402I (protein)
chain: B1 chain with C183T, G268I
B32: G402Q (protein)
chain: B1 chain with C183T, G268Q
B33: G402Y (protein)
chain: B1 chain with C183T, G268Y
B34: C403P (protein)
chain: B1 chain with C183T, C269P
B35: S144A (protein)
chain: B1 chain with S10A, C183T
B36: S144D (protein)
chain: B1 chain with S10D, C183T
B37: T317S (protein)
chain: B1 chain with C183S
B38: S196D (protein)
chain: B1 chain with S62D, C183T

test system: chimeric Caspase-9 polypeptide; assay: Caspase mutant classes and basal activity (Table 3); type: cell-based, human; details: class heading of Table 3
Sequence (as listed by the source, change not shown): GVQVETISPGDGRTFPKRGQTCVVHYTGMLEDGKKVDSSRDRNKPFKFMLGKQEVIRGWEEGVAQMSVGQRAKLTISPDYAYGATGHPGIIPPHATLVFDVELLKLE

| Molecule | Basal Activity |
| --- | --- |
| B1 | Similar |
| B2 | Similar |
| B3 | Similar |
| B4 | Similar |
| B5 | Similar |
| B6 | Similar |
| B7 | Increased |
| B8 | Increased |
| B9 | Increased |
| B10 | Increased |
| B11 | Increased |
| B12 | Increased |
| B13 | Increased |
| B14 | Increased |
| B15 | Increased |
| B16 | Increased |
| B17 | Increased |
| B18 | Increased |
| B19 | dead |

| Molecule | Basal Activity |
| --- | --- |
| B20 | dead |
| B21 | dead |
| B22 | dead |
| B23 | dead |
| B24 | dead |
| B25 | dead |
| B26 | dead |
| B27 | dead |
| B28 | dead |
| B29 | dead |
| B30 | dead |
| B31 | dead |
| B32 | dead |
| B33 | dead |
| B34 | dead |
| B35 | Decreased |
| B36 | Decreased |
| B37 | Decreased |
| B38 | Decreased |

same assay, conditions: class heading of Table 3; ligand IC50

| Molecule | IC50 |
| --- | --- |
| B1 | Similar |
| B2 | Similar |
| B3 | Similar |
| B4 | Similar |
| B5 | Similar |
| B6 | Similar |
